Laboratory results taken from patent US20100216715A1 (Novo Nordisk, published 2010).
Numbering of substitutions follows the chain as printed. Numbers in names are those of the source.

T1: human beta-Klotho (human, UniProt Q86Z14 1-1044)
T1 sequence (looked up): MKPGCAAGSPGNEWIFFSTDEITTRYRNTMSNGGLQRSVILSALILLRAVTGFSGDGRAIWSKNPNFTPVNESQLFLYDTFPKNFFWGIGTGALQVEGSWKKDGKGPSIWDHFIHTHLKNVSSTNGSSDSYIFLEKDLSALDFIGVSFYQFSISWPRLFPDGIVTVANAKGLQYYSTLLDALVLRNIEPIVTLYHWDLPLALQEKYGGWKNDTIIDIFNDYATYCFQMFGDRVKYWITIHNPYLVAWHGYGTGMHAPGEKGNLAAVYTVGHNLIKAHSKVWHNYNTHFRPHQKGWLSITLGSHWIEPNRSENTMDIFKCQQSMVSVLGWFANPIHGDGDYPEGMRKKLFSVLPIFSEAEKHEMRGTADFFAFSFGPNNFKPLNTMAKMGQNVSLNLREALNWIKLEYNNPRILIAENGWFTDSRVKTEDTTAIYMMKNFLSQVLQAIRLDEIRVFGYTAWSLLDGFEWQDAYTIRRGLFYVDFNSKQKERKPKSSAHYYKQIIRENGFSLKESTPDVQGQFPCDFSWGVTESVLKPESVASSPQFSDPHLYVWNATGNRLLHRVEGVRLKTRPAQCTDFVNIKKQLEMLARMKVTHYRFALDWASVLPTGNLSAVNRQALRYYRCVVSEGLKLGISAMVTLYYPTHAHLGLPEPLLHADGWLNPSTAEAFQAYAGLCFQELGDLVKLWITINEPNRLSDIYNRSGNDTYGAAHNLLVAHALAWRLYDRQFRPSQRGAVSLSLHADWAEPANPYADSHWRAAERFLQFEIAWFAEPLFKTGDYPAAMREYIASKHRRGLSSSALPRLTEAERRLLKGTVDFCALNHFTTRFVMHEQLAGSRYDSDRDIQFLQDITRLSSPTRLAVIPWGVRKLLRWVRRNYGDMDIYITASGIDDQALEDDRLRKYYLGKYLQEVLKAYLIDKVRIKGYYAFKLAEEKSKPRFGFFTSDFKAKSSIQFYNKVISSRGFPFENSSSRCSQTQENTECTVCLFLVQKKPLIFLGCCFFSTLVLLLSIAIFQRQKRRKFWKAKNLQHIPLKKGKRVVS

B1: (145aP, 145bM, L146V, P149E, G151E, I152D, A154R, P155G, Q156H, P157L, P158E, D159S, V160D, G161M, S162F, D164S, S167E, M168T, V169D, G170S, P171M, S172D, … (ligand)
chain: MHPIPDSSPLLQFGGQVRQRYLYTDDAQQTEAHLEIREDGTVGGAADQSPESLLQLKALKPGVIQILGVKTSRFLCQRPDGALYGSLHFDPEACSFRELLLEDGYNVYQSEAHGLPLHLPGNKSPHRDPAPRGPARFLPLPGLPPAPMVPEEPEDLRGHLESDMFSSPLETDSMDPFGLVTGLEAVRSPSFEK
B2: (Q15F) Met-FGF21 (ligand)
chain: MHPIPDSSPLLQFGGFVRQRYLYTDDAQQTEAHLEIREDGTVGGAADQSPESLLQLKALKPGVIQILGVKTSRFLCQRPDGALYGSLHFDPEACSFRELLLEDGYNVYQSEAHGLPLHLPGNKSPHRDPAPRGPARFLPLPGLPPALPEPPGILAPQPPDVGSSDPLSMVGPSQGRSPSYAS
B3: (166F, 167G, 168L, 169aT, 171L, 172E, 173A, 174V, 179F, 180E, 181K) (Compound Z) (ligand)
chain: MHPIPDSSPLLQFGGQVRQRYLYTDDAQQTEAHLEIREDGTVGGAADQSPESLLQLKALKPGVIQILGVKTSRFLCQRPDGALYGSLHFDPEACSFRELLLEDGYNVYQSEAHGLPLHLPGNKSPHRDPAPRGPARFLPLPGLPPALPEPPGILAPQPPDVGSSDPFGLVTGLEAVRSPSFEK
B4: (M168A) Met-FGF21 (ligand)
chain: B2 chain with F16Q, M169A
B5: M168L Met-FGF21 (ligand)
chain: B2 chain with F16Q, M169L
B6: (S71C, D102E, N121Q, L166F, S167G, M168L, 169aT, P171L, S172E, Q173A, G174V, Y179F, A180E, S181K) Ala-FGF21 (ligand)
chain: B3 chain with M1A, S72C, D103E, N122Q
B7: (M168S) Met-FGF21 (ligand)
chain: B2 chain with F16Q, M169S
B8: (169aT, 171L, 172E, 173A, 174V, 179F, 180E, 181K) Met-FGF21 (ligand)
chain: B3 chain with F167L, G168S, L169M
B9: (179F, 180E, 181R) Met-FGF21 (ligand)
chain: B2 chain with F16Q, Y180F, A181E, S182R
B10: (D24K) Met-FGF21 (ligand)
chain: B2 chain with F16Q, D25K
B11: A26E Met-FGF21 (ligand)
chain: B2 chain with F16Q, A27E
B12: Q27E Met-FGF21 (ligand)
chain: B2 chain with F16Q, Q28E
B13: (Q28R, A31 E) Met-FGF21 (ligand)
chain: B2 chain with F16Q, Q29R, A32E
B14: (K56R, K59R, K69R, K122R) Met-FGF21 derivative of Example 7 (ligand)
chain: B2 chain with F16Q, K57R, K60R, K70R, K123R
modifications: N-alpha-1-[2-(2-{2-[2-(2-{2-[(S)-4-carboxy-4-(17-carboxy-heptadecanoylamino)-butyrylamino]-ethoxy}-ethoxy)-acetylamino]-ethoxy}-ethoxy)-acetyl] on the alpha amino group of the N-terminal Met
B15: S71C Met-FGF21 (ligand)
chain: B2 chain with F16Q, S72C
B16: S71C Met-FGF21 derivative of Example 5 (ligand)
chain: B2 chain with F16Q, S72C
modifications: S-71-[1-(2-{2-[2-(2-{2-[2-(2-{2-[(S)-4-carboxy-4-(19-carboxy-nonadecanoylamino)-butyrylamino]-ethoxy}-ethoxy)-acetylamino]-ethoxy}-ethoxy)-acetylamino]-ethylcarbamoyl}-ethyl)-2,5-dioxo-pyrrolidin-3-yl] on the thiol of Cys71
B17: (S71C, N121Q, L166F, S167G, M168L, 169aT, P171L, S172E, Q173A, G174V, Y179F, A180E, S181K) Ala-FGF21 (ligand)
chain: B3 chain with M1A, S72C, N122Q
B18: S71C Met-FGF21 derivative of Examples 6 and 12 (ligand)
chain: B2 chain with F16Q, S72C
modifications: S-71-({2-[2-(2-{2-[2-(2-{2-[(S)-4-carboxy-4-(19-carboxy-nonadecanoylamino)-butyrylamino]-ethoxy}-ethoxy)-acetylamino]-ethoxy}-ethoxy)-acetylamino]-ethylcarbamoyl}-methyl) on the thiol of Cys71
B19: S71C Met-FGF21 derivative of Example 13 (ligand)
chain: B2 chain with F16Q, S72C
modifications: S-71-[1-(2-{2-[2-(2-{2-[2-(2-{2-[(S)-4-carboxy-4-(17-carboxy-heptadecanoylamino)-butyrylamino]-ethoxy}-ethoxy)-acetylamino]-ethoxy}-ethoxy)-acetylamino]-ethylcarbamoyl}-ethyl)-2,5-dioxo-pyrrolidin-3-yl] on the thiol of Cys71
B20: S71C Met-FGF21 derivative of Example 14 (ligand)
chain: B2 chain with F16Q, S72C
modifications: S-71-({2-[2-(2-{2-[2-(2-{2-[(S)-4-carboxy-4-(17-carboxy-heptadecanoylamino)-butyrylamino]-ethoxy}-ethoxy)-acetylamino]-ethoxy}-ethoxy)-acetylamino]-ethylcarbamoyl}-methyl) on the thiol of Cys71
B21: (des N121) Met-FGF21 (ligand)
chain: MHPIPDSSPLLQFGGQVRQRYLYTDDAQQTEAHLEIREDGTVGGAADQSPESLLQLKALKPGVIQILGVKTSRFLCQRPDGALYGSLHFDPEACSFRELLLEDGYNVYQSEAHGLPLHLPGKSPHRDPAPRGPARFLPLPGLPPALPEPPGILAPQPPDVGSSDPLSMVGPSQGRSPSYAS
B22: (L166F, S167G, M168L, 169aT, P171L, S172E, Q173A, G174V, Y179F, A180E, S181K) Ser-FGF21 (ligand)
chain: B3 chain with M1S
B23: (M168S) Ser-FGF21 (ligand)
chain: B2 chain with M1S, F16Q, M169S
B24: (K56R, K59R, K69R, K122R, L166F, S167G, M168L, 169aT, P171L, S172E, Q173A, G174V, Y179F, A180E, S181R) Ser-FGF21 (ligand)
chain: B3 chain with M1S, K57R, K60R, K70R, K123R, K183R
B25: (K56R, 59R, 69R, 122R, 166F, 167G, 168L, 169aT, 171L, 172E, 173A, 174V, 179F, 180E, 181R) Ser-FGF21 derivative of Example 50 (ligand)
chain: B3 chain with M1S, K57R, K60R, K70R, K123R, K183R
modifications: N-alpha-1-[2-(2-{2-[2-(2-{2-[(S)-4carboxy-4-(17-carboxy-heptadecanoylamino)-butyrylamino]-ethoxy}-ethoxy)-acetylamino]-ethoxy}-ethoxy)-acetyl] on the N-terminal alpha amino group
B26: (S71C, L166F, S167G, M168L, 169aT, P171L, S172E, Q173A, G174V, Y179F, A180E, S181K) Ser-FGF21 (ligand)
chain: B3 chain with M1S, S72C
B27: (-1S, 71C, 166F, 167G, 168L, 169aT, 171L, 172E, 173A, 174V, 179F, 180E, 181K) FGF21 derivative of Example 18 (ligand)
chain: B3 chain with M1S, S72C
modifications: S-71-({2-[2-(2-{2-[2-(2-{2-[(S)-4-carboxy-4-(17-carboxy-heptadecanoylamino)-butyrylamino]-ethoxy}-ethoxy)-acetylamino]-ethoxy}-ethoxy)-acetyl-amino]-ethylcarbamoyl}-methyl) on the thiol of Cys71
B28: (-1A, 71C, 121Q, 166F, 167G, 168L, 169aT, 171L, 172E, 173A, 174V, 179F, 180E, 181K) FGF21 derivative of Example 17 (ligand)
chain: B3 chain with M1A, S72C, N122Q
modifications: S-71-({2-[2-(2-{2-[2-(2-{2-[(S)-4-carboxy-4-(17-carboxy-heptadecanoylamino)-butyrylamino]-ethoxy}-ethoxy)-acetylamino]-ethoxy}-ethoxy)-acetylamino]-ethylcarbamoyl}-methyl) on the thiol of Cys71

target: T1, human beta-Klotho; assay: cell-based or functional assay

| Binder | pERK-HEK293-Beta-klotho without HSA [EC50 (nM)] Median Value |
| --- | --- |
| B1 | 17 nM |
| B2 | 3.3 nM |
| B3 | 1 nM |
| B4 | 100 nM |
| B5 | 1.4 nM |
| B6 | 3.3 nM |
| B7 | 100 nM |
| B8 | 3.9 nM |
| B9 | 5.9 nM |
| B10 | 6.7 nM |
| B11 | 4.7 nM |
| B12 | 2.2 nM |
| B13 | 1 nM |
| B14 | 1.4 nM |
| B15 | 3 nM |
| B16 | 1.1 nM |
| B17 | 2 nM |
| B18 | 1.5 nM |
| B19 | 4.8 nM |
| B20 | 2.9 nM |
| B21 | 1 nM |
| B22 | 1 nM |
| B23 | 100 nM |
| B24 | 3.8 nM |
| B25 | 2 nM |
| B26 | 2.2 nM |
| B27 | 2.5 nM |
| B28 | 3 nM |
